The results in this text go back to the supplement of paper PMC10567573.

First the molecules themselves.
B1: GFOD1 (parent)
chain: EEAEELAKEMSVPFYTSRIDEVLL
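Note: lentivirally expressed fusions sorted by FACS into six bins by GFP to DsRed ratio, PSI derived from sequencing read proportions per bin multiplied by bin number.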

The data set covers variants of B1. The data set is described as follows: protein stability index of a GFP-peptide fusion (GPS, HEK-293T) (PSI 1-6); higher = more stable. To be noted: c terminus: a fixed tail appended.
Turning to EEAEELAKERSVPFYTSRIDEVLL [M10R], the protein stability index came to 3.81.

For the variant EEAEELAKEVSVPFYTSRIDEVLL [M10V], the protein stability index came out at 3.84.

Take EEAEELAKEPSVPFYTSRIDEVLL [M10P]: the protein stability index turned out to be 4.5.

Take EEAEELAKEYSVPFYTSRIDEVLL [M10Y]: the protein stability index worked out at 3.63.

Take EEAEELAKESSVPFYTSRIDEVLL [M10S]: the protein stability index was found to be 4.12.

Regarding EEAEELAKEASVPFYTSRIDEVLL [M10A], the protein stability index turned out to be 4.41.

In the case of EEAEELAKEMPVPFYTSRIDEVLL [S11P], the protein stability index stood at 3.87.

For EEAEELAKEMHVPFYTSRIDEVLL [S11H], the protein stability index turned out to be 4.04.

In the case of EEAEELAKEMQVPFYTSRIDEVLL [S11Q], the protein stability index was 4.04.

On to EEAEELAKEMGVPFYTSRIDEVLL [S11G], for which the protein stability index was 2.97.

As to EEAEELAKEMWVPFYTSRIDEVLL [S11W], the protein stability index turned out to be 2.76.

Take EEAEELAKEMYVPFYTSRIDEVLL [S11Y]: the protein stability index turned out to be 2.86.

For the variant EEAEELAKEMRVPFYTSRIDEVLL [S11R], the protein stability index stood at 3.02.

For IEAEELAKEMSVPFYTSRIDEVLL [E1I], the protein stability index is 2.46.

Consider PEAEELAKEMSVPFYTSRIDEVLL [E1P], for which the protein stability index was determined as 3.51.

AEAEELAKEMSVPFYTSRIDEVLL [E1A]: the protein stability index was found to be 3.79.

With CEAEELAKEMSVPFYTSRIDEVLL [E1C], the protein stability index was determined as 3.08.

As for YEAEELAKEMSVPFYTSRIDEVLL [E1Y], the protein stability index was 2.98.

Consider EEAEELAKEMSVPQYTSRIDEVLL [F14Q], for which the protein stability index was found to be 5.

Turning to EEAEELAKEMSVPMYTSRIDEVLL [F14M], the protein stability index is 3.83.

In the case of EEAEELAKEMSVPKYTSRIDEVLL [F14K], the protein stability index stood at 4.2.

For the variant EEAEELAKEMSVPEYTSRIDEVLL [F14E], the protein stability index is 4.4.

For the variant EEAEELAKEMSVPWYTSRIDEVLL [F14W], the protein stability index amounted to 3.66.

As for EEAEELAKEMSVPAYTSRIDEVLL [F14A], the protein stability index was determined as 4.46.

In the case of EEAEELAKRMSVPFYTSRIDEVLL [E9R], the protein stability index was 2.7.

For EEAEELAKYMSVPFYTSRIDEVLL [E9Y], the protein stability index amounted to 2.94.

Turning to EEAEELAKWMSVPFYTSRIDEVLL [E9W], the protein stability index was found to be 2.62.

For the variant EEAEELAKHMSVPFYTSRIDEVLL [E9H], the protein stability index came out at 3.2.

Consider EEAEELAKCMSVPFYTSRIDEVLL [E9C], for which the protein stability index is 2.55.

Turning to EEAEELAKVMSVPFYTSRIDEVLL [E9V], the protein stability index was 3.1.

Consider EEAEELAKLMSVPFYTSRIDEVLL [E9L], for which the protein stability index amounted to 2.16.

In the case of EEAENLAKEMSVPFYTSRIDEVLL [E5N], the protein stability index was found to be 3.23.

Turning to EEAELLAKEMSVPFYTSRIDEVLL [E5L], the protein stability index is 4.05.

On to EEAEGLAKEMSVPFYTSRIDEVLL [E5G], for which the protein stability index worked out at 4.04.

Consider EEAERLAKEMSVPFYTSRIDEVLL [E5R], for which the protein stability index came out at 3.56.

With EEAEFLAKEMSVPFYTSRIDEVLL [E5F], the protein stability index was 2.94.

Regarding EEAEALAKEMSVPFYTSRIDEVLL [E5A], the protein stability index came out at 3.45.

Regarding EEAEILAKEMSVPFYTSRIDEVLL [E5I], the protein stability index was 2.57.

On to EEAESLAKEMSVPFYTSRIDEVLL [E5S], for which the protein stability index was 3.13.

As to EGAEELAKEMSVPFYTSRIDEVLL [E2G], the protein stability index worked out at 3.39.

For the variant EVAEELAKEMSVPFYTSRIDEVLL [E2V], the protein stability index was determined as 3.64.

In the case of ERAEELAKEMSVPFYTSRIDEVLL [E2R], the protein stability index stood at 2.94.

Regarding EHAEELAKEMSVPFYTSRIDEVLL [E2H], the protein stability index turned out to be 3.06.

For EFAEELAKEMSVPFYTSRIDEVLL [E2F], the protein stability index is 2.1.

Take EYAEELAKEMSVPFYTSRIDEVLL [E2Y]: the protein stability index was 2.39.

Consider EIAEELAKEMSVPFYTSRIDEVLL [E2I], for which the protein stability index stood at 2.18.

Consider EMAEELAKEMSVPFYTSRIDEVLL [E2M], for which the protein stability index was 2.53.

Turning to EEAEELAKEMSVPFYTSRIGEVLL [D20G], the protein stability index stood at 2.42.

For the variant EEAEELAKEMSVPFYTSRIFEVLL [D20F], the protein stability index amounted to 2.

In the case of EEAEELAKEMSVPFYTSRINEVLL [D20N], the protein stability index amounted to 3.29.

In the case of EEAEELAKEMSVPFYTSRICEVLL [D20C], the protein stability index worked out at 2.46.

On to EEAEELAKEMSVPFYTSRIYEVLL [D20Y], for which the protein stability index came out at 2.47.

EEAEELAKEMSVPFYTSRIVEVLL [D20V]: the protein stability index was 2.08.

Turning to EEAEELAKEMSVPFYTSRIQEVLL [D20Q], the protein stability index came to 3.79.

As to EEAEELAKEMSVPFYTSRIDESLL [V22S], the protein stability index was 3.86.

As to EEAEELAKEMSVPFYTSRIDEHLL [V22H], the protein stability index stood at 4.68.

Turning to EEAEELAKEMSVPFYTSRIDERLL [V22R], the protein stability index stood at 4.26.

For EEAEELAKEMSVPFYTSRIDEFLL [V22F], the protein stability index was found to be 3.73.

As for EEAEELAKEMSVPFYTSRIDEALL [V22A], the protein stability index was 4.53.

EEAEELAKEMSVPFYTSRIDEWLL [V22W]: the protein stability index is 3.62.

With EEAEELAKEMSVPFYTSRIDENLL [V22N], the protein stability index stood at 4.21.

Take EEAEELAKEMSVPFYTSRIDECLL [V22C]: the protein stability index was determined as 3.7.

For EEAPELAKEMSVPFYTSRIDEVLL [E4P], the protein stability index amounted to 3.6.

On to EEALELAKEMSVPFYTSRIDEVLL [E4L], for which the protein stability index came out at 2.9.

EEAQELAKEMSVPFYTSRIDEVLL [E4Q]: the protein stability index was determined as 3.9.

With EEAKELAKEMSVPFYTSRIDEVLL [E4K], the protein stability index worked out at 3.46.

As to EEASELAKEMSVPFYTSRIDEVLL [E4S], the protein stability index was 3.93.

In the case of EEAAELAKEMSVPFYTSRIDEVLL [E4A], the protein stability index came to 3.45.

Turning to EEAWELAKEMSVPFYTSRIDEVLL [E4W], the protein stability index came to 2.77.

With EEARELAKEMSVPFYTSRIDEVLL [E4R], the protein stability index amounted to 3.52.

On to EEADELAKEMSVPFYTSRIDEVLL [E4D], for which the protein stability index came out at 3.97.

With EEAIELAKEMSVPFYTSRIDEVLL [E4I], the protein stability index stood at 3.51.

Turning to EEACELAKEMSVPFYTSRIDEVLL [E4C], the protein stability index came out at 2.73.

As for EEAGELAKEMSVPFYTSRIDEVLL [E4G], the protein stability index was determined as 3.4.

Turning to EENEELAKEMSVPFYTSRIDEVLL [A3N], the protein stability index was found to be 4.03.

As to EEKEELAKEMSVPFYTSRIDEVLL [A3K], the protein stability index is 4.38.

Turning to EEEEELAKEMSVPFYTSRIDEVLL [A3E], the protein stability index was found to be 4.32.

As for EEHEELAKEMSVPFYTSRIDEVLL [A3H], the protein stability index was 3.84.

For EEYEELAKEMSVPFYTSRIDEVLL [A3Y], the protein stability index was 3.38.

As to EECEELAKEMSVPFYTSRIDEVLL [A3C], the protein stability index is 2.56.

Consider EELEELAKEMSVPFYTSRIDEVLL [A3L], for which the protein stability index worked out at 3.11.

Consider EEAEELAKEMSVPFYWSRIDEVLL [T16W], for which the protein stability index is 2.32.

With EEAEELAKEMSVPFYNSRIDEVLL [T16N], the protein stability index came out at 4.17.

For the variant EEAEELAKEMSVPFYASRIDEVLL [T16A], the protein stability index is 4.

Regarding EEAEELAKEMSVPFYKSRIDEVLL [T16K], the protein stability index was 3.7.

As for EEAEELAKEMSVPFYQSRIDEVLL [T16Q], the protein stability index worked out at 4.17.

Consider EEAEELAKEMSVPFYGSRIDEVLL [T16G], for which the protein stability index came out at 3.78.

Take EEAEELAKEMSVPFYSSRIDEVLL [T16S]: the protein stability index worked out at 3.27.

As for EEAEELAKEMSVPFYPSRIDEVLL [T16P], the protein stability index turned out to be 3.65.

Consider EEAEELAPEMSVPFYTSRIDEVLL [K8P], for which the protein stability index worked out at 3.59.

In the case of EEAEELATEMSVPFYTSRIDEVLL [K8T], the protein stability index turned out to be 3.89.

For the variant EEAEELAEEMSVPFYTSRIDEVLL [K8E], the protein stability index is 4.17.

As to EEAEELAREMSVPFYTSRIDEVLL [K8R], the protein stability index was 4.04.

Take EEAEELASEMSVPFYTSRIDEVLL [K8S]: the protein stability index turned out to be 2.89.
